The values that follow come from PMC3585288, “Interactions of Archaeal Chromatin Proteins Alba1 and Alba2 with Nucleic Acids” (PLoS ONE, 2013).

Series [1] deals with the molecule itself. The series can be described thus: native gel or EMSA; native protein PAGE, 20% acrylamide homogeneous gel, PhastSystem, acidic buffer agarose strips, proteins migrating towards the negative electrode; equinatoxin II (19.82 kDa) as size reference. (In EMSA bound probe runs differently from free probe, usually more slowly.)
For series [2], the target named is T1, Alba1 (Ape10b1);Alba2 (Ape10b2) (Aeropyrum pernix;Aeropyrum pernix, UniProt Q9YAW1;Q9YAX2 1-94;1-102, |).
T1 sequence 1: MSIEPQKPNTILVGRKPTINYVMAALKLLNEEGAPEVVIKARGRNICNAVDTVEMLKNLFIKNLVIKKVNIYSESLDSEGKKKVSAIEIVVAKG
T1 sequence 2: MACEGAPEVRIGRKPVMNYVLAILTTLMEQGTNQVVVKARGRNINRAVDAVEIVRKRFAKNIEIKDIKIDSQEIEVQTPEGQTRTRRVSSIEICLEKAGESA
The series can be described thus: SPR; 6.0 uM equimolar complex; biphasic; ITC: 50 mM NaH2PO4, pH 7.0, 25 C; SPR: 50 mM NaH2PO4, 150 mM NaCl, 0.005% P20, pH 7.0, 25 C; UV melting: 50 mM NaH2PO4, pH 7.0; EMSA: 0.8% agarose, 1 h at room. Particulars: protein: recombinant;recombinant; tags: His-tag (pQE-30UA); copies: 1;1; label: 5'-biotin on one strand (S1); blunt.

The target in series [3] is T2, Alba1 (Ape10b1) (Aeropyrum pernix, UniProt Q9YAW1 1-94).
T2 sequence: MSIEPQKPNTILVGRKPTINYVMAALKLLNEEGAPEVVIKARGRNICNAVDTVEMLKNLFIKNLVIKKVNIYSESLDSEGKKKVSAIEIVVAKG
The series can be described thus: SPR; 6.0 uM protein; saturable, fast association; ITC: 50 mM NaH2PO4, pH 7.0, 25 C; SPR: 50 mM NaH2PO4, 150 mM NaCl, 0.005% P20, pH 7.0, 25 C; UV melting: 50 mM NaH2PO4, pH 7.0; EMSA: 0.8% agarose, 1 h at room. To be noted: protein: recombinant; tags: His-tag (pQE-30UA); chain copies: 2; label: 5'-biotin on one strand (S1); blunt. In general terms: In SPR one partner is held on a chip, and binding of the other changes the refractive index at the surface.

For series [4], the target named is T3, Alba2 (Ape10b2) (Aeropyrum pernix, UniProt Q9YAX2 1-102).
T3 sequence: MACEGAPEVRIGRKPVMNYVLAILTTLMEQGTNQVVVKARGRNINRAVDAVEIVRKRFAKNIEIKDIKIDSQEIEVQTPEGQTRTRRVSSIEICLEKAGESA
In words: SPR; 6.0 uM protein; slower association and dissociation; ITC: 50 mM NaH2PO4, pH 7.0, 25 C; SPR: 50 mM NaH2PO4, 150 mM NaCl, 0.005% P20, pH 7.0, 25 C; UV melting: 50 mM NaH2PO4, pH 7.0; EMSA: 0.8% agarose, 1 h at room. Particulars: protein: recombinant; tags: His-tag (pETDuet-1); chain copies: 2; label: 5'-biotin on one strand (S1); blunt.

B1: Alba1 protein from Aeropyrum pernix (APE1832.1) (natural protein, UniProt Q9YAW1 1-94, looked up)
chain: MSIEPQKPNTILVGRKPTINYVMAALKLLNEEGAPEVVIKARGRNICNAVDTVEMLKNLFIKNLVIKKVNIYSESLDSEGKKKVSAIEIVVAKG
notes: Alba1 (Ape10b1), Aeropyrum pernix, locus APE1832.1; 94 amino-acid residues (10,336 Da); His-tag is removable by thrombin; also called Ape10b1; APA1
For the molecule B1, the stoichiometry N (commonly the number of molecules, sites or subunits per partner or assembly) in series [1] was 2.

B2: SPRspecAP (dsDNA)
DNA 1: CCCCCCCGTGAAAGCCTAGACAGCGAGGCCCCCCC
DNA 2: GGGGGGGCCTCGCTGTCTAGGCTTTCACGGGGGGG
For B2, the binding result in series [2], in series [3] and in series [4] was “binds” throughout.

B3: Alba2 protein from Aeropyrum pernix (APE1823) (natural protein)
chain: MACEGAPEVRIGRKPVMNYVLAILTTLMEQGTNQVVVKARGRNINRAVDAVEIVRKRFAKNIEIKDIKIDSQEIEVQTPEGQTRTRRVSSIEICLEKAGESA
notes: Alba2 (Ape10b2), Aeropyrum pernix, locus APE1823; 102 amino-acid residues (11,380 Da); His-tag is removable by thrombin; Co-expression with untagged Alba1 may leave Alba1 in the Alba2 preparation (my surmise); also called Ape10b2; APA2
For the molecule B3, in series [1], the “stoichiometry N” value amounted to 2.
